Experiment [1] has as its target T1, purified streptococcal antigen (SA) I/II (Streptococcus mutans, UniProt P23504 39-1532).
T1 construct: Purified antigen as coated on ELISA plates; also called SA 1/11; purified SA I/II
T1 sequence (looked up): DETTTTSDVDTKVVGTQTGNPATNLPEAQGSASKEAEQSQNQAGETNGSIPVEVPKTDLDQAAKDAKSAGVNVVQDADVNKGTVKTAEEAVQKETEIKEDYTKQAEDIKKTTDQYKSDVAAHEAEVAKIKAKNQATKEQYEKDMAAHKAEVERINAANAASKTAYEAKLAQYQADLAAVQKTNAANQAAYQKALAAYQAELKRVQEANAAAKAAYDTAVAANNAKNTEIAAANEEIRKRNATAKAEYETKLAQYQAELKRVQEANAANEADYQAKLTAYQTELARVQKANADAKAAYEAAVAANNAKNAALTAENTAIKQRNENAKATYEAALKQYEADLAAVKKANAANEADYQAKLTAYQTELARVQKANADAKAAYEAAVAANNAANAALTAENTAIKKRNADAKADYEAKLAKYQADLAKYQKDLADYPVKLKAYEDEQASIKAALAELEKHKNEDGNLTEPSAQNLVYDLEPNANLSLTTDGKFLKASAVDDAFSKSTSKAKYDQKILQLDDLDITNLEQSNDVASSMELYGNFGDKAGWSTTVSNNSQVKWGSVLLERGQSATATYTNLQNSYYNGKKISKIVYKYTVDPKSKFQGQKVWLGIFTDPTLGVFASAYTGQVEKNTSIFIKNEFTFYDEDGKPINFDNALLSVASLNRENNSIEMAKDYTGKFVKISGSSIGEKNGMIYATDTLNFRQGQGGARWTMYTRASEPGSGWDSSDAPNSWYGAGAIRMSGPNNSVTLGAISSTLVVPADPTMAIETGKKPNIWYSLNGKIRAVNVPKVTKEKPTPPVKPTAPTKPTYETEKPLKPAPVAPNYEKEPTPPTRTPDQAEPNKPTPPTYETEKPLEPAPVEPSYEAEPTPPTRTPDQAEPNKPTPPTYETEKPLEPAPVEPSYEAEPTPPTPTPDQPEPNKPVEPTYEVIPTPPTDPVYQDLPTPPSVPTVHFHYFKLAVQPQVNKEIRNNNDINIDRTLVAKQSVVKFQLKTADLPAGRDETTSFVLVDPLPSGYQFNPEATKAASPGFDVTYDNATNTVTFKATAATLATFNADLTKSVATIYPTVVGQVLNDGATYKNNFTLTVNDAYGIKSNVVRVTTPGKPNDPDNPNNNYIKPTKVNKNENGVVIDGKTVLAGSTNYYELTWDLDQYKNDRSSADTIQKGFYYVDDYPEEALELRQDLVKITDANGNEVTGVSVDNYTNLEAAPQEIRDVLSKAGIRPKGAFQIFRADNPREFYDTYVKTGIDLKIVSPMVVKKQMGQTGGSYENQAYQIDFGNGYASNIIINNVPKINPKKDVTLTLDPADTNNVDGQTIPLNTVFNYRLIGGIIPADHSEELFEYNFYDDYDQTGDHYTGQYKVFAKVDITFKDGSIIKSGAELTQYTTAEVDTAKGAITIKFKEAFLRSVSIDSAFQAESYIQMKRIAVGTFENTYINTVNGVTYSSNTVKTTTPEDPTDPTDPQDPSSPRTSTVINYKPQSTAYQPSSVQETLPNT
Kind of experiment: ELISA on SA I/II, plant extract. For orientation: ELISA stands for enzyme-linked immunosorbent assay.

Experiment [2] deals with T1, purified streptococcal antigen (SA) I/II. Kind of experiment: ELISA on purified SA I/II, plant extract.

B1: mouse J chain expressed alone in plants (other, UniProt P01592 22-159, looked up)
chain: GDDEATILADNKCMCTRVTSRIIPSTEDPNEDIVERNIRIVVPLNNRENISDPTSPLRRNFVYHLSDVCKKCDPVEVELEDQVVTATQSNICNEDDGVPETCYMYDRNKCYTTMVPLRYHGETKMVQAALTPDSCYPD
notes: Tested as crude plant extract; also called plants expressing only J chain
As to B1, the binding result in experiment [1] is on record as “no binding”.

B2: protection protein (amino acids 1-606 of rabbit polyimmunoglobulin receptor) expressed alone in plants (receptor)
chain: QSSLLGPSSIFGPGEVNVLEGDSVSITCYYPTTSVTRHSRKFWCREEESGRCVTLASTGYTSQEYSGRGKLTDFPDKGEFVVTVDQLTQNDSGSYKCGVGVNGRGLDFGVNVLVSQKPEPDDVVYKQYESYTVTITCPFTYATRQLKKSFYKVEDGELVLIIDSSSKEAKDPRYKGRITLQIQSTTAKEFTVTIKHLQLNDAGQYVCQSGSDPTAEEQNVDLRLLTPGLLYGNLGGSVTFECALDSEDANAVASLRQVRGGNVVIDSQGTIDPAFEGRILFTKAENGHFSVVIAGLRKEDTGNYLCGVQSNGQSGDGPTQLRQLFVNEEIDVSRSPPVLKGFPGGSVTIRCPYNPKRSDSHLQLYLWEGSQTRHLLVDSGEGLVQKDYTGRLALFEEPGNGTFSVVLNQLTAEDEGFYWCVSDDDESLTTSVKLQIVDGEPSPTIDKFTAVQGEPVEITCHFPCKYFSSEKYWCKWNDHGCEDLPTKLSSSGDLVKCNNNLVLTLTLDSVSEDDEGWYWCGAKDGHEFEEVAAVRVELTEPAKVAVEPAKVPVDPAKAAPAPAEEKAKARCPVPRRRQWYPLSRKLRTSCPEPRLLAEEVAVQSAE
notes: also called plants expressing only protection protein; free protection protein
Regarding B2, the binding result in experiment [2] was “no binding”.

The values above are taken from patent publication US20020159958A1 (REGENTS OF UNIVERSITY OF CALIFORNIA, published 2002).
